First the molecules themselves.
B1: CD71-binding FN3 domain SEQ ID NO: 262 (designed binder)
chain: MSLPAPKNLVVSRVTEDSARLSWTAPDAAFDSFFIGYLEPQPPGEVIHLFVPGSERSYDLTGLKPGTEYNVTIQGVKGGFPSDPLVASFTT
B2: CD71-binding FN3 domain SEQ ID NO: 290 (designed binder)
chain: B1 chain with V46A, F50Y, D83E, S88T
B3: CD71-binding FN3 domain SEQ ID NO: 265 (designed binder)
chain: B1 chain with V46A, H48S, F50Y, S88H
B4: CD71-binding FN3 domain SEQ ID NO: 281 (designed binder)
chain: B1 chain with V46A, H48A, F50Y, D83E, V86I, S88N
B5: CD71-binding FN3 domain SEQ ID NO: 266 (designed binder)
chain: B1 chain with V46A, H48Y, F50L, D83L, S88T
B6: CD71-binding FN3 domain SEQ ID NO: 293 (designed binder)
chain: B1 chain with V46A, H48D, F50Y, D83H, S88T
B7: CD71-binding FN3 domain SEQ ID NO: 294 (designed binder)
chain: B1 chain with P43L, V46A, D83E, V86I
B8: CD71-binding FN3 domain SEQ ID NO: 264 (designed binder)
chain: B1 chain with V46A, H48A, F50Y, D83E, A87V, S88H
B9: CD71-binding FN3 domain SEQ ID NO: 279 (designed binder)
chain: B1 chain with V46A, F50Y, F80N, P81W, D83A, V86S, S88I
B10: CD71-binding FN3 domain SEQ ID NO: 295 (designed binder)
chain: B1 chain with V46A, H48D, F50Y, D83E, S88T
B11: CD71-binding FN3 domain SEQ ID NO: 270 (designed binder)
chain: B1 chain with V46A, F50Y, D83E, V86I, S88N, F89S
B12: CD71-binding FN3 domain SEQ ID NO: 283 (designed binder)
chain: MSLPAPKNLVVSRVTEDSARLSWTAPDAAFDSFEIAYQELSLWGEAIVLTVPGSERSYDLTGLKPGTEYYVHIGGVKGGIWSSPLSAYSTT
B13: CD71-binding FN3 domain SEQ ID NO: 282 (designed binder)
chain: MSLPAPKNLVVSRVTEDSARLSWTAPDAAFDSFDIGYFELTWYGEAIVLTVPGSERSYDLTGLKPGTEYWVSIGGVKGGRFSEPLYARFTT
B14: CD71-binding FN3 domain SEQ ID NO: 263 (designed binder)
chain: MSLPAPKNLVVSRVTEDSARLSWTAPDAAFDSFEIGYFENLYLGEAIVLTVPGSERSYDLTGLKPGTEYWVQIGGVKGGNWSSPLSAIFTT
B15: CD71-binding FN3 domain SEQ ID NO: 292 (designed binder)
chain: B14 chain with F38W, L41A, L43K, W70V, Q72F, N80V, S83V, P84S
B16: CD71-binding FN3 domain SEQ ID NO: 276 (designed binder)
chain: B14 chain with G36A, N40L, L41D, L43V, N80T, S83G, T91I
B17: CD71-binding FN3 domain SEQ ID NO: 286 (designed binder)
chain: B14 chain with G36V, F38A, N40P, L41V, Y42R, L43F, N80E
B18: CD71-binding FN3 domain SEQ ID NO: 289 (designed binder)
chain: B14 chain with G36A, N40I, L41A, Y42W, N80A, W81Y, S83T
B19: CD71-binding FN3 domain SEQ ID NO: 271 (designed binder)
chain: B14 chain with V14I, F38W, L41A, L43K, W70V, Q72F, N80V, S83V
B20: CD71-binding FN3 domain SEQ ID NO: 278 (designed binder)
chain: B14 chain with Y58H, S83A
B21: CD71-binding FN3 domain SEQ ID NO: 284 (designed binder)
chain: B14 chain with F38W, L41A, L43K, W70M, Q72F, N80V, S83V
B22: CD71-binding FN3 domain SEQ ID NO: 272 (designed binder)
chain: B14 chain with G36A, F38G, N40A, L41A, L43D, V48A, T50L, S83A
B23: CD71-binding FN3 domain SEQ ID NO: 268 (designed binder)
chain: B14 chain with L60P, S83A
B24: CD71-binding FN3 domain SEQ ID NO: 275 (designed binder)
chain: B14 chain with S83A, S86V, I88E
B25: CD71-binding FN3 domain SEQ ID NO: 280 (designed binder)
chain: B14 chain with P26L, S83A
B26: CD71-binding FN3 domain SEQ ID NO: 285 (designed binder)
chain: B14 chain with P26T, F38W, L41A, L43K, W70V, Q72F, N80V, S83V
B27: CD71-binding FN3 domain SEQ ID NO: 269 (designed binder)
chain: B14 chain with L41D, L43F, W70V, Q72F, S83A
B28: CD71-binding FN3 domain SEQ ID NO: 274 (designed binder)
chain: B14 chain with G36V, F38W, N40Q, L41V, Y42G, L43V, N80G, W81F, S83E
B29: CD71-binding FN3 domain SEQ ID NO: 296 (designed binder)
chain: B13 chain with R80I, F81W, E83S, Y86S, R88I
B30: CD71-binding FN3 domain SEQ ID NO: 277 (designed binder)
chain: B13 chain with D34E, W42Y, S72Q, R80G, Y86S, R88I
B31: CD71-binding FN3 domain SEQ ID NO: 267 (designed binder)
chain: MSLPAPKNLVVSRVTEDSARLSWTAPDAAFDSFEISYWEHTFNGEAIILFVPGSERSYDLTGLKPGTEYYVTIGGVKGGAWSPPLWAEFTT
B32: CD71-binding FN3 domain SEQ ID NO: 273 (designed binder)
chain: MLPAPKNLVVSRVTEDSARLSWTAPDAAFDSFEISYWEHTFNGEAIILFVPGSERSYDLTGLKPGTEYYVTIGGVKGGAWSPPLWAEFTT
B33: CD71-binding FN3 domain of SEQ ID NO: 102 (designed binder, not shown: small tags and cut ends)
chain: MLPAPKNLVVSRVTEDSARLSWTAPDAAFDSFDIGYTEYGGYGEAIILQVPGSERSYDLTGLKPGTEYWVLIQGVKGGGSSVPLVAYFTT
B34: CD71-binding FN3 domain of SEQ ID NO: 100 (designed binder, not shown: small tags and cut ends)
chain: MLPAPKNLVVSRVTEDSARLSWTAPDAAFDSFYIAYAEPRPDGEAILLLVPGSERSYDLTGLKPGTEYSVLIHGVKGGLLSSPLVASFTT
B35: CD71-binding FN3 domain of SEQ ID NO: 101 (designed binder, not shown: small tags and cut ends)
chain: MLPAPKNLVVSRVTEDSARLSWTAPDAAFDSFGIGYWERRWYGEAIVLTVPGSERSYDLTGLKPGTEYEVTIRGVKGGGYSGPLSAIFTT
B36: CD71-binding FN3 domain of SEQ ID NO: 117 (designed binder, not shown: small tags and cut ends)
chain: MLPAPKNLVVSRVTEDSARLSWTAPDAAFDSFFIGYLEPQPPGEAIWLLVPGSERSYDLTGLKPGTEYNVTIQGVKGGFPSTPLSAIFTT

This is an account of results in patent US20260151494A1.

Where a chain is given by its changes, count along the chain named.

Chain of human serum albumin (human) (P02768 25-609 limits assumed): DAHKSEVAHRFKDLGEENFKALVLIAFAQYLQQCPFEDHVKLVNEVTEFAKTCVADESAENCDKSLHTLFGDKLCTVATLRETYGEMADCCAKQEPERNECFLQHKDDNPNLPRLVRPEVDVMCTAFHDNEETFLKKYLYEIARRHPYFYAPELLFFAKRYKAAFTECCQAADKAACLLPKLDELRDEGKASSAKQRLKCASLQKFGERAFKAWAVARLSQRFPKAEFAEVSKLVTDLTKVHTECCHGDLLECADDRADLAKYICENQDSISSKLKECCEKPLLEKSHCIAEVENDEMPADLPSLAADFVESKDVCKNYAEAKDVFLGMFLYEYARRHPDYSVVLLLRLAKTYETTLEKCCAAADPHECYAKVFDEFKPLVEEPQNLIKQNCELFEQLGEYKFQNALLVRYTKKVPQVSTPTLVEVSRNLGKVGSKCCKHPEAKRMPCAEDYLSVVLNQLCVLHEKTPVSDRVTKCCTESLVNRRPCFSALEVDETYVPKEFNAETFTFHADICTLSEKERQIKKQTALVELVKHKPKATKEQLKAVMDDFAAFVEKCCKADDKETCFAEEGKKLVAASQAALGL

The first experiment addresses apical domain of CD71 (Screen 3: 'cynomolgus apical domain of human CD71') (cynomolgus (as paragraph 454 words it; ambiguous)). Kind of experiment: primary ELISA. In general terms: An ELISA detects its analyte on a solid surface through an enzyme-linked reagent.
The molecule B1 had an RLU of 7.2e+06 RLU.
With B2, the RLU is 6.87e+06 RLU.
The same measure, in the same setting: to B3 belongs 6.76e+06 RLU; to B4, 6.93e+06 RLU; to B5, 7.41e+06 RLU.
Still for that read-out and setting: as for B6, the figure is 6.72e+06 RLU; as for B7, 7.4e+06 RLU; as for B8, 6.23e+06 RLU.
The same measure, in the same setting: as for B9, the figure is 5.54e+06 RLU; as for B10, 6.71e+06 RLU.
Take B11: the RLU turned out to be 6.3e+06 RLU.
On the same count and under the same terms, as for B12, the figure is 6.14e+06 RLU; as for B13, 4.85e+06 RLU.
Still for that read-out and setting: as for B14, the figure is 5.51e+06 RLU.
The molecule B15 displayed an RLU of 5.29e+06 RLU.
The same measure, in the same setting: as for B16, the figure is 4.54e+06 RLU; as for B17, 5.31e+06 RLU.
In the case of B18, the RLU was 5.2e+06 RLU.
The same measure, in the same setting: to B19 belongs 4.94e+06 RLU; to B20, 5.1e+06 RLU.
The same measure, in the same setting: to B21 belongs 4.41e+06 RLU.
Turning to B22, the RLU worked out at 4.66e+06 RLU.
B23 came in with an RLU of 5.8e+06 RLU.
Still for that read-out and setting: to B24 belongs 5.44e+06 RLU; to B25, 4.97e+06 RLU.
In turn, B26 had an RLU of 5.13e+06 RLU.
The same measure, in the same setting: to B27 belongs 6.01e+06 RLU; to B28, 4.64e+06 RLU; to B29, 4.82e+06 RLU.
Still for that read-out and setting: as for B30, the figure is 5.75e+06 RLU; as for B31, 6.05e+06 RLU; as for B32, 6.05e+06 RLU.

The target is the same in the next experiment. Kind of experiment: primary ELISA, RLU ratio to HSA.
Regarding B1, the Apical domain:HSA was found to be 562.
On the same count and under the same terms, to B2 belongs 158; to B3, 488; to B4, 413.
Same read-out and setting: to B5 belongs 206; to B6, 605; to B7, 245.
Still for that read-out and setting: to B8 belongs 549; to B9, 680.
Consider B10, for which the Apical domain:HSA was determined as 474.
The same measure, in the same setting: to B11 belongs 74; to B12, 229.
On the same count and under the same terms, to B13 belongs 365; to B14, 344.
Take B15: the Apical domain:HSA was 355.
On the same count and under the same terms, as for B16, the figure is 90.
The same measure, in the same setting: to B17 belongs 262.
Same read-out and setting: to B18 belongs 112; to B19, 347; to B20, 641.
Consider B21, for which the Apical domain:HSA stood at 363.
On to B22, for which the Apical domain:HSA was found to be 476.
With B23, the Apical domain:HSA is 188.
Still for that read-out and setting: to B24 belongs 515.
For the molecule B25, the Apical domain:HSA came out at 160.
As for B26, the Apical domain:HSA was found to be 368.
The same measure, in the same setting: as for B27, the figure is 481.
Still for that read-out and setting: as for B28, the figure is 581.
Take B29: the Apical domain:HSA worked out at 141.
Still for that read-out and setting: to B30 belongs 383.
For B31, the Apical domain:HSA was determined as 178.
On the same count and under the same terms, as for B32, the figure is 1060.

Another experiment addresses human serum albumin (human) (UniProt P02768). Put plainly: primary ELISA of colonies, luminescence; negative control antigen.
Take B33: the HSA, RLU came to 4550 RLU.
On the same count and under the same terms, to B34 belongs 7750 RLU; to B35, 4350 RLU.
Still for that read-out and setting: to B36 belongs 3750 RLU.
